The text below walks through data of PMC12846656.

Series [1] concerns WT Np (SARS-CoV-2 (ancestral, WA-1/2020 isolate)). The series can be described thus: fluorescence anisotropy salt titration.
Series [2] deals with HIV-1 Gag WT (HIV-1). Kind of series: fluorescence anisotropy salt titration. In general terms: Fluorescence polarisation rises when a labelled molecule tumbles more slowly, as on binding a larger partner.

As a reminder, the Kd is the concentration at which binding is half-saturated. Turning to HIV-1 TARpolyA, in series [1], the Kd was 260 µM.

In the case of HIV-1 WT Psi, the Kd in series [1] worked out at 38 µM.

For the substance SL1-4, the values for the Kd in series [1] and in series [2] were 260 µM and 120000 µM, respectively.

Turning to SL1-5, the Kd in series [1] was 36 µM; in series [2] it was 21000 µM.

Regarding SL5, the values for the Kd in series [1] and in series [2] were 500 µM and 140 µM, respectively.
